Tests used:
Test in all cases: fluorescence polarisation; fluorescein-labelled histone peptide 3 nM, KDM4 DTD titrated 0.1-100 μM; 30 mM HEPES, 150 mM NaCl pH 7.4, 0.01% Triton X-100
[1] = molecular target: H3 (17-32) K23me3 peptide, fluorescein-labelled (UniProt P68431)
[2] = molecular target: H3K23me1 peptide (monomethylated H3K23), fluorescein-labelled
[3] = molecular target: H3K23me2 peptide (dimethylated H3K23), fluorescein-labelled
[4] = molecular target: H3K23me3R26A peptide, fluorescein-labelled
[5] = molecular target: H3K23me3R26me2a peptide, fluorescein-labelled
[6] = molecular target: H3T22phK23me3 peptide, fluorescein-labelled

Row | Substance | Kd [1] [µM] | Kd [2] [µM] | Kd [3] [µM] | Kd [4] [µM] | Kd [5] [µM] | Kd [6] [µM]
1 | KDM4B double tudor domain (KDM4B-DTD), HaloTag-tagged, wild type (from UniProt O94953 917-1031) (domain or fragment) | 10.3 |  |  |  |  | 
2 | KDM4A double tudor domain (KDM4A-DTD), HaloTag-tagged, wild type (from UniProt O75164 895-1011) (domain or fragment) | 2.2 | 98.5 | 9.06 | 32.3 | 8.7 | 83.7

— publication PMC5114558, “Reader domain specificity and lysine demethylase-4 family function” (Nature Communications, 2016)
